B1: ZNF8 (parent)
chain: KPYTCSVCGKSFSRTTCLFLHLRT

Variants of: B1
Experiment: protein stability index of a GFP-peptide fusion (GPS, HEK-293T) (PSI 1-6); higher = more stable
Details: c terminus: a fixed tail appended
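Note: lentivirally expressed fusions sorted by FACS into six bins by GFP to DsRed ratio, PSI derived from sequencing read proportions per bin multiplied by bin number.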

Going from KPYTCSVQGKSFSRTTCLFLHLRT [C8Q] to KPYTCSVVGKSFSRTTCLFLHLRT [C8V], the protein stability index falls from 4.56 to 1.97.

Compared with KPYTCSVSGKSFSRTTCLFLHLRT [C8S], KPYTCSVKGKSFSRTTCLFLHLRT [C8K] is lower in protein stability index: 3.95 for the first, 2.45 for the second.

Going from KPYTCSVDGKSFSRTTCLFLHLRT [C8D] to KPYTCSVIGKSFSRTTCLFLHLRT [C8I], the protein stability index falls from 3.17 to 2.07.

Going from KPYTCSVRGKSFSRTTCLFLHLRT [C8R] to KPYTCSVWGKSFSRTTCLFLHLRT [C8W], the protein stability index falls from 3.12 to 2.5.

Going from KPYTCSVAGKSFSRTTCLFLHLRT [C8A] to KPYTCSVCKKSFSRTTCLFLHLRT [G9K], the protein stability index falls from 2.56 to 1.87.

Going from KPYTCSVCTKSFSRTTCLFLHLRT [G9T] to KPYTCSVCLKSFSRTTCLFLHLRT [G9L], the protein stability index rises from 1.5 to 2.25.

Compared with KPYTCSVCIKSFSRTTCLFLHLRT [G9I], KPYTCSVCYKSFSRTTCLFLHLRT [G9Y] is lower in protein stability index: 2.92 for the first, 1.97 for the second.

Going from KPYTCSVCMKSFSRTTCLFLHLRT [G9M] to KPYTCSVCHKSFSRTTCLFLHLRT [G9H], the protein stability index falls from 2.38 to 2.24.

First: KPYTCSVCEKSFSRTTCLFLHLRT [G9E]
Second: KPYTCSVCDKSFSRTTCLFLHLRT [G9D]
The protein stability index of the first is lower: 1.71 for the first, 1.8 for the second.

First: KPYTCSVCFKSFSRTTCLFLHLRT [G9F]
Second: KPYTCSVCQKSFSRTTCLFLHLRT [G9Q]
The protein stability index of the first is higher: 2.12 for the first, 1.89 for the second.

Going from KPYTCSVCGKSFSRTTCVFLHLRT [L18V] to KPYTCSVCGKSFSRTTCWFLHLRT [L18W], the protein stability index falls from 2.27 to 2.18.

First: KPYTCSVCGKSFSRTTCRFLHLRT [L18R]
Second: KPYTCSVCGKSFSRTTCEFLHLRT [L18E]
The protein stability index of the first is lower: 1.67 for the first, 2.45 for the second.

First: KPYTCSVCGKSFSRTTCNFLHLRT [L18N]
Second: KPYTCSVCGKSFSRTTCKFLHLRT [L18K]
The protein stability index of the first is lower: 2.49 for the first, 2.9 for the second.

Compared with KPYTCSVCGKSFSRTTCIFLHLRT [L18I], KPYTCSVCGKSFSRTTCLFLNLRT [H21N] is lower in protein stability index: 2.49 for the first, 1.6 for the second.

Compared with KPYTCSVCGKSFSRTTCLFLILRT [H21I], KPYTCSVCGKSFSRTTCLFLELRT [H21E] is higher in protein stability index: 1.59 for the first, 2.31 for the second.

First: KPYTCSVCGKSFSRTTCLFLPLRT [H21P]
Second: KPYTCSVCGKSFSRTTCLFLMLRT [H21M]
The protein stability index of the first is lower: 2.01 for the first, 2.16 for the second.

Compared with KPYTCSVCGKSFSRTTCLFLVLRT [H21V], KGYTCSVCGKSFSRTTCLFLHLRT [P2G] is higher in protein stability index: 1.8 for the first, 3 for the second.

Compared with KVYTCSVCGKSFSRTTCLFLHLRT [P2V], KAYTCSVCGKSFSRTTCLFLHLRT [P2A] is lower in protein stability index: 2.46 for the first, 2.24 for the second.

Compared with KKYTCSVCGKSFSRTTCLFLHLRT [P2K], KSYTCSVCGKSFSRTTCLFLHLRT [P2S] is higher in protein stability index: 2.05 for the first, 2.72 for the second.

Going from KIYTCSVCGKSFSRTTCLFLHLRT [P2I] to KRYTCSVCGKSFSRTTCLFLHLRT [P2R], the protein stability index falls from 2.08 to 1.77.

Compared with KNYTCSVCGKSFSRTTCLFLHLRT [P2N], TPYTCSVCGKSFSRTTCLFLHLRT [K1T] is lower in protein stability index: 2.14 for the first, 1.67 for the second.

First: GPYTCSVCGKSFSRTTCLFLHLRT [K1G]
Second: FPYTCSVCGKSFSRTTCLFLHLRT [K1F]
The protein stability index of the first is higher: 2.48 for the first, 2.19 for the second.

Going from RPYTCSVCGKSFSRTTCLFLHLRT [K1R] to CPYTCSVCGKSFSRTTCLFLHLRT [K1C], the protein stability index falls from 2.26 to 2.08.

First: NPYTCSVCGKSFSRTTCLFLHLRT [K1N]
Second: KPYTCFVCGKSFSRTTCLFLHLRT [S6F]
The protein stability index of the first is higher: 2.36 for the first, 2.08 for the second.

Compared with KPYTCYVCGKSFSRTTCLFLHLRT [S6Y], KPYTCLVCGKSFSRTTCLFLHLRT [S6L] is higher in protein stability index: 1.6 for the first, 1.93 for the second.

Compared with KPYTCIVCGKSFSRTTCLFLHLRT [S6I], KPYTCRVCGKSFSRTTCLFLHLRT [S6R] is higher in protein stability index: 1.41 for the first, 2.14 for the second.

Compared with KPYTCSVCGKSFSCTTCLFLHLRT [R14C], KPYTCSVCGKSFSKTTCLFLHLRT [R14K] is lower in protein stability index: 3.41 for the first, 2.12 for the second.

Compared with KPYTCSVCGKSFSVTTCLFLHLRT [R14V], KPYTCSVCGKSFSPTTCLFLHLRT [R14P] is lower in protein stability index: 3.3 for the first, 2.45 for the second.

First: KPYTCSVCGKSFSWTTCLFLHLRT [R14W]
Second: KPYTCSVCGKSFSETTCLFLHLRT [R14E]
The protein stability index of the first is lower: 1.66 for the first, 2.7 for the second.

Going from KPYTCSVCGKSFSFTTCLFLHLRT [R14F] to KPYTCSVCGKSVSRTTCLFLHLRT [F12V], the protein stability index rises from 1.6 to 1.73.

Compared with KPYTCSVCGKSWSRTTCLFLHLRT [F12W], KPYTCSVCGKSISRTTCLFLHLRT [F12I] is higher in protein stability index: 1.72 for the first, 3.27 for the second.

Going from KPYTCSVCGKSNSRTTCLFLHLRT [F12N] to KPYTCSVCGKSDSRTTCLFLHLRT [F12D], the protein stability index falls from 2.4 to 2.22.

Compared with KPYTCSVCGKSGSRTTCLFLHLRT [F12G], KPYTCSVCGKSTSRTTCLFLHLRT [F12T] is lower in protein stability index: 2.27 for the first, 1.37 for the second.

Going from KPYTCSVCGKSYSRTTCLFLHLRT [F12Y] to KPYTCSVCGKSFSRGTCLFLHLRT [T15G], the protein stability index falls from 2.15 to 1.54.

Going from KPYTCSVCGKSFSRATCLFLHLRT [T15A] to KPYTCSVCGKSFSRQTCLFLHLRT [T15Q], the protein stability index rises from 2.45 to 2.61.

Going from KPYTCSVCGKSFSRRTCLFLHLRT [T15R] to KPYTCSVCGKSFSRMTCLFLHLRT [T15M], the protein stability index rises from 2.58 to 2.73.

First: KPYTCSVCGKSFSRTTCLVLHLRT [F19V]
Second: KPYTCSVCGKSFSRTTCLNLHLRT [F19N]
The protein stability index of the first is lower: 1.9 for the first, 2.36 for the second.

Compared with KPYTCSVCGKSFSRTTCLYLHLRT [F19Y], KPYTCSVCGKSFSRTTCLILHLRT [F19I] is lower in protein stability index: 2.44 for the first, 1.91 for the second.

First: KPYTCSVCGKSFSRTTCLALHLRT [F19A]
Second: KPYTCSVCGKSFSRTTCLRLHLRT [F19R]
The protein stability index of the first is lower: 1.98 for the first, 2.35 for the second.

Going from KPYTCSVCGKSFSRTTCLWLHLRT [F19W] to KPYTCSVCGQSFSRTTCLFLHLRT [K10Q], the protein stability index rises from 1.57 to 2.18.

Going from KPYTCSVCGMSFSRTTCLFLHLRT [K10M] to KPYTCSVCGPSFSRTTCLFLHLRT [K10P], the protein stability index falls from 2.88 to 2.84.

Going from KPYTCSVCGNSFSRTTCLFLHLRT [K10N] to KPYTCSVCGGSFSRTTCLFLHLRT [K10G], the protein stability index rises from 2 to 2.24.

First: KPYTCSVCGHSFSRTTCLFLHLRT [K10H]
Second: KPYTCSVCGISFSRTTCLFLHLRT [K10I]
The protein stability index of the first is higher: 1.86 for the first, 1.65 for the second.

First: KPYTCSVCGFSFSRTTCLFLHLRT [K10F]
Second: KPYTCSVCGCSFSRTTCLFLHLRT [K10C]
The protein stability index of the first is higher: 1.85 for the first, 1.77 for the second.

Compared with KPYTCSVCGASFSRTTCLFLHLRT [K10A], KPYTCSVCGTSFSRTTCLFLHLRT [K10T] is higher in protein stability index: 1.79 for the first, 2.25 for the second.

Compared with KPYTCSVCGKSFSRTTCLFIHLRT [L20I], KPYTCSVCGKSFSRTTCLFGHLRT [L20G] is higher in protein stability index: 1.99 for the first, 2.1 for the second.

Compared with KPYTCSVCGKSFSRTTCLFSHLRT [L20S], KPYTCSVCGKSFSRTTCLFHHLRT [L20H] is higher in protein stability index: 2.17 for the first, 2.79 for the second.

— the supplement of paper PMC10567573
